Experimental data: US9284369B2, “Inhibition of angiogenesis” (Genentech, Inc., priority 2007, dated 2016)

Columns and labels:
human neutrophils = assay: Chemotaxis of peripheral blood neutrophils; type: cell-based
Method: 10^6 cells were washed with HBSS containing 0.2% BSA before putting into transwell insert with 5 μm pore size (Corning Incorporated, Lowell, Mass.). In the lower chamber, media alone or media with various cytokines at various concentrations (maximum at 200 ng/ml) was added. After 3 hr at 37° C., cells in the lower chamber were transferred, mixed with 9 ml ZPAK solution and counted on Z2 Coulter Particle Count and Size Analyzer (Beckman Coulter, Fullerton, Calif.).

CD11b+Gr1+ cells = assay: G-CSF-induced mobilization of CD11b+Gr1+ cells; type: in vivo, mouse; details: sub-maximal dose 2 μg, within six hours
Method: To determine the role of Bv8 in G-CSF-induced mobilization of CD11b+Gr1+ cells, Balb/c nude mice received two doses of anti-Bv8 antibodies (5+5 mg/kg), 12 hours apart, followed by mouse G-CSF (R&D Systems; 2 μg/mouse) fours hours after the second dose of Mab. As a positive control, we used a rat anti-mouse G-CSF Mab (Mab414, R&D Systems; 10 μg/mouse) given at the same interval as anti-Bv8, followed by mouse G-CSF. After six hours, mice were bled and the frequency of CD11b+Gr1+ cells was determined as described. To determine the role of G-CSF in regulating Bv8 expression in the absence of tumor, Balb/c nude mice were given daily i.p. injections of control rat IgG (Genentech) or rat anti-G-CSF Mab (Mab414, R&D Systems, 10 μg/mouse) for eight consecutive days. Animals were euthanized and total proteins were extracted from BMMNCs. Bv8 levels were measured by ELISA, as described. To assess the significance of G-CSF in regulating Bv8 expression in tumors, Balb/c nude mice were pretreated with 10 μg of rat anti-G-CSF Mab or rat IgG as above described, followed after 12 hours by implantation with HM7 cells (5×10^6 per mouse). Controls were implanted with empty Matrigel™. Animals then received daily administration of antibodies for two days. Forty-eight hours after Matrigel™ or tumor implantation, mice were euthanized and Bv8 levels in BMMNCs were measured as described above.

[1] = test system: PKR2/EG-VEGFR2 expression; assay: Regulation of PKR2/EG-VEGFR2 expression in human bone marrow cells and neutrophils; type: cell-based
From the text: Taqman reagents for human PKR1/EG-VEGFR1 and PKR2/EG-VEGFR2 were obtained from Applied Biosystems.
(§1) Recombinant human MCP-1, MIP-1α, MIP-1β, MIP-2, bFGF, VEGF, GM-CSF, G-CSF, SDF-1α, M-CSF, Erythropoietin (EPO) and TNFα were purchased from R&D Systems (Minneapolis, Minn.). Recombinant human IL-8, IFNγ, Bv8 (Prokineticin-2), IL-4, IL-10, IL-13, TGF-β were from PeproTech Inc. (Rocky Hill, N.J.). SCF (Stem Cell factor) was from Invitrogen Biosource (Carlsbad, Calif.). In some cases, G-CSF from Amgen (Neupogen/Filgrastim) was used. All cytokines were used at 10 ng/ml. Freshly purified cells were washed and re-suspended in HBSS media containing 0.2% BSA (low endotoxin, Serologicals Corp. Norcross, Ga.). Two million cells were incubated in 24-well plates with various cytokines and chemokines for 4 hr at 37° C. in a 5% CO2 incubator. Cells were then transferred into eppendorf tubes, centrifuged and lysed with RNA lysis buffer (Qiagen, Valencia, Calif.). Bv8 expression was assessed by Taqman with RPL19 (Ribosomal Protein L19) as the internal control gene.

Bv8 expression = assay: Regulation of Bv8 gene expression in cultured human blood and bone marrow cells (Taqman); type: cell-based
Method: RNA was prepared using the RNeasy™ Mini Kit (Qiagen). 50 ng total RNA per reaction was used for the real time PCR (Taqman) analysis. For human Bv8, testis RNA (BD Biosciences) served as control. Reactions were run on 9600 Emulation mode of 7500 Real time PCR system (Applied Biosystems, Foster City, Calif.) and the absolute quantification with standard curve was used with Sequence Detection System (SDS) software. The expression level of each gene was further quantified relative to the housekeeping gene RPL19 in the same sample. The sequences of Taqman primers are as follows: Human Bv8 forward: ATG GCA CGG AAG CTA GGA (SEQ ID NO: 10), reverse: GCAGAGCTGAAGTCCTCTTGA (SEQ ID NO: 11), probe: TGCTGCTGGACCCTTCCTAAACCT (SEQ ID NO: 12); Human RPL19 forward: CGC AAG CGC CGT GAA (SEQ ID NO: 28), reverse: GGTCTCTTCCTCCTTGGATAAAGTC (SEQ ID NO: 29), probe: CCAGGCCAAGAAGGAGGAGATCATCA (SEQ ID NO: 30). Human specific VEGF forward: AAT GAC GAG GGC CTG GAG T (SEQ ID NO: 31), reverse: TTGATCCGCATAATCTGCATG (SEQ ID NO: 32), probe: TGTGCCCACTGAGGAGTCCAACATCA (SEQ ID NO: 33).
as §1

B1: G-CSF: recombinant granulocyte-CSF: mouse or human (R&D Systems) or human Neupogen (Amgen) (protein, chains of the INN, looked up)
chain: MTPLGPASSLPQSFLLKCLEQVRKIQGDGAALQEKLCATYKLCHPEELVLLGHSLGIPWAPLSSCPSQALQLAGCLSQLHSGLFLYQGLLQALEGISPELGPTLDTLQLDVADFATTIWQQMEELGMAPALQPTQGAMPAFASAFQRRAGGVLVASHLQSFLEVSYRVLRHLAQP
- concentration required to stimulate neutrophil migration (human neutrophils): 20 nM
- mobilization of CD11b+Gr1+ to the peripheral blood (CD11b+Gr1+ cells): significant mobilization
- regulation of PKR2/EG-VEGFR2 in human bone marrow [1]: regulate PKR2/EG-VEGFR2 to a significant level
- Bv8 expression in monocytes and lymphocytes (Bv8 expression; 10 ng/ml, 4 hr): did not show any change
- induction of Bv8 expression in human neutrophils and whole bone marrow cells (Bv8 expression; 10 ng/ml, 4 hr): 7 fold
- range of induction of Bv8 expression (Bv8 expression; 10 ng/ml, 4 hr): 6-12 fold
- duration of Bv8 mRNA induction (Bv8 expression; data not shown): up to 24 hr
